Data taken from patent US20230087600A1.

Tests used:
[1] = target: human IL-10 receptor (IL-10R) on T cells and B cells of human whole blood (human) (UniProt Q13651); assay: cell-based or functional assay
[2] = target: T1, mouse IL-10 receptor (IL-10R) on T cells and B cells of C57BL/6 mouse splenocytes (mouse) (UniProt Q61727); assay: cell-based or functional assay
T1 sequence (looked up) 1: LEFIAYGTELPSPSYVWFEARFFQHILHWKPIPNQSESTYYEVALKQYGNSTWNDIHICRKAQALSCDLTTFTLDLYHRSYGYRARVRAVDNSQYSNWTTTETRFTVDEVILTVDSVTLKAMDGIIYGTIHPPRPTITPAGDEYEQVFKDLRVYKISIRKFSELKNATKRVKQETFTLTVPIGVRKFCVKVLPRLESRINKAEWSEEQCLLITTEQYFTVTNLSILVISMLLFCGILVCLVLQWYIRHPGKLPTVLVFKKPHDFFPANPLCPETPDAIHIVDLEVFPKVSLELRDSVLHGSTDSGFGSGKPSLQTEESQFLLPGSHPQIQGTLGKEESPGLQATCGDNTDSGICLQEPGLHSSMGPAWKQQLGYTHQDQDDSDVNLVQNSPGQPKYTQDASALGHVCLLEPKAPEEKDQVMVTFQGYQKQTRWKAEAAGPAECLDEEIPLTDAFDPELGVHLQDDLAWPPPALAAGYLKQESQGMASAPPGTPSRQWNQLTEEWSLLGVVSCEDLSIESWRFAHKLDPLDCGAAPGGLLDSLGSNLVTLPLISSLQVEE
T1 sequence (looked up) 2: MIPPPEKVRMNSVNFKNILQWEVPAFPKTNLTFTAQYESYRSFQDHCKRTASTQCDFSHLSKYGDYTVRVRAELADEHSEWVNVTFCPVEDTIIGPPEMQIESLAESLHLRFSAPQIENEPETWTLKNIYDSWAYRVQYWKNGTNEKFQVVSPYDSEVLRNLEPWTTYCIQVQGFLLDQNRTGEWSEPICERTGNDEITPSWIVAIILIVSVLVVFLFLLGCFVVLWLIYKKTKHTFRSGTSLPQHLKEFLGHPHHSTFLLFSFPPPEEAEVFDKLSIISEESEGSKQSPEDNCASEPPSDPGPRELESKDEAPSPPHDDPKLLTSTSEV

Chain of human IL-10 receptor (IL-10R) on T cells and B cells of human whole blood (human) (Q13651 22-578, chain 1 of 2): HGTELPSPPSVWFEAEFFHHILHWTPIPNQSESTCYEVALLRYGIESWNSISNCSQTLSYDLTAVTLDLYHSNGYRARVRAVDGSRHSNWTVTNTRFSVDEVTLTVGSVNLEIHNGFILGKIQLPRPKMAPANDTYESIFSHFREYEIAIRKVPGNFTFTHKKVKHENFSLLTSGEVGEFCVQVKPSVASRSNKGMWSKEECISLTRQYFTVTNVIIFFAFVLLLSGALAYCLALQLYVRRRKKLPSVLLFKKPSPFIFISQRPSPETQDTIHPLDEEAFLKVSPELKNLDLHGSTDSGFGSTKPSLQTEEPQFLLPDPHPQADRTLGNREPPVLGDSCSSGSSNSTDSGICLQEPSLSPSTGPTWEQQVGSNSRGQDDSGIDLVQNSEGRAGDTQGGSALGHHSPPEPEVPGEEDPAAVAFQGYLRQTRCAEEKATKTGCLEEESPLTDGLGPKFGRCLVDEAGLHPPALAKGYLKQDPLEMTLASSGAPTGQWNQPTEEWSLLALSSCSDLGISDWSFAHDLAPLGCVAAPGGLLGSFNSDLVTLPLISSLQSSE
Chain of human IL-10 receptor (IL-10R) on T cells and B cells of human whole blood (human) (Q08334 20-325, chain 2 of 2, further chain): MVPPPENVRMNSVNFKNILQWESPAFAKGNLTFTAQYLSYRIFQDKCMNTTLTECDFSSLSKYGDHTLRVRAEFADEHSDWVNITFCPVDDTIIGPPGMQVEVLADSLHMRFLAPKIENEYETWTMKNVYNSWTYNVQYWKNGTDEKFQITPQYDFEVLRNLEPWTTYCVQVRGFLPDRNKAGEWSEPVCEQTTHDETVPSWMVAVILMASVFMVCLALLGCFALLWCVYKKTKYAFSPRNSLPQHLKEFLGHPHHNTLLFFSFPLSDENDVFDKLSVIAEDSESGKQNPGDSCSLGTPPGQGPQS

| STAT3 phosphorylation (pY705), flow cytometry, CD3+ T cells in human whole blood, EC50 [1] [pM] | STAT3 phosphorylation (pY705), flow cytometry, CD19+ B cells in human whole blood, EC50 [1] [pM] | STAT3 phosphorylation (pY705), flow cytometry, B cells of C57BL/6 mouse splenocytes (CD19 + B cells), EC50 [2] [pM] | STAT3 phosphorylation (pY705), flow cytometry, CD3+ T cells of C57BL/6 mouse splenocytes, EC50 [2] [pM] | Substance |
| --- | --- | --- | --- | --- |
| 167 | 347 |  |  | 5KPEG-hIL-10 (human IL-10 conjugated to 5 KD PEG) (from UniProt P22301 19-178) (ligand) |
|  |  | 125 | 441 | mIgG1-D265A-Fc-(G4S)4-mIL-10 (Fc fusion) |
